Measurements from publication PMC8273888.

Legend:
Experiment in all cases: Kinetic parameters of hydrolysis of cephalosporin conjugates
Type in all cases: biochemical
Details in all cases: other: compound as substrate of IMP-28; pH 7.2; 25.0 °C
[1] = substrate: [H][C@]12SCC(CS[C@@H](Cc3ccccc3)C(=O)O)=C(C(=O)O)N1C(=O)[C@H]2NC(=O)Cc1ccccc1
[2] = substrate: [H][C@]12SCC(CSCc3ccccc3)=C(C(=O)O)N1C(=O)[C@H]2NC(=O)Cc1ccccc1
[3] = substrate: [H][C@]12SCC(CSCCc3ccccc3)=C(C(=O)O)N1C(=O)[C@H]2NC(=O)Cc1ccccc1
[4] = substrate: [H][C@]12SCC(CS[C@H](Cc3ccccc3)C(=O)O)=C(C(=O)O)N1C(=O)[C@H]2NC(=O)Cc1ccccc1
[5] = substrate: [H][C@]12SCC(CSC(C(=O)O)c3ccccc3)=C(C(=O)O)N1C(=O)[C@H]2NC(=O)Cc1ccccc1

B1: IMP-28 (Klebsiella oxytoca) (protein)
chain: ESLPDLKIERLDEGVYVHTSFEEVNGWGVVPKHGLVVLVNTEAYLIDTPFTAKDTEKLVTWFVGRGYKIKGSISSHFHSDSTGGIEWLNSQSIPTYASELTNELLKKDGKVQAKNSFGGVSYWLVKNKIEVFYPGPGHTPDNVVVWLPENRVLFGGCFVKPYGLGNLGDANLEAWPKSAKLLMSKYGKAKLVVPSHSEVGDASLLKRTLEHAVKGLNESKKPSKPSN
[1]
  Km: 175 ± 19 µM
  kcat: 41 s⁻¹
  kcat/Km: 234000 M⁻¹ s⁻¹
[2]
  Km: 20.5 ± 4 µM
  kcat: 10.8 s⁻¹
  kcat/Km: 529000 M⁻¹ s⁻¹
[3]
  Km: 83.3 ± 16 µM
  kcat: 6.12 s⁻¹
  kcat/Km: 73000 M⁻¹ s⁻¹
[4]
  Km: 249 ± 7 µM
  kcat: 2.83 s⁻¹
  kcat/Km: 11000 M⁻¹ s⁻¹
[5]
  Km: 129 ± 13 µM
  kcat: 0.386 s⁻¹
  kcat/Km: 3000 M⁻¹ s⁻¹
